Assay results as given in patent publication US6521814B1, “Use of ligands for treatment of diseases responsive to retinoids” (Institut National de la Santa et de la Recherche Medicale, priority 1997, dated 2003).

Legend:
D2R promoter = D2R promoter CAT reporter assay in transfected COS-1 cells, reporter alone; type: cell-based, rat; details: C1 reporter-transfected COS-1 cells, no receptor vector; 10^−7 M
Source text: Expression Vectors. The C1 reporter construct was obtained by subcloning the HindIII fragment spanning the 5 ′ promoter region of the D2R gene (positions −495 to +273), in the reporter plasmid pBLCAT3 (Luckow, B. & Schütz, G., Nucleic Acids Res. 15:5490 (1987)). The C2 reporter plasmid was constructed by subcloning the SmaI-XhoI fragment (positions −76 to +273) in the same position. The C3 and C4 reporters were generated by cloning a 29 bp synthetic oligonucleotide corresponding, respectively, to the natural rat D2R RARE sequence and the mutated one into pBLCAT2 (Luckow, B. & Schütz, G., Nucleic Acids Res. 15:5490 (1987)). The polylinker in pBLCAT2 is located upstream of the herpes simplex virus 1 (HSV1) thymidine kinase (TK) promoter, from position −105 to +51. To measure transfection efficiency the plasmid pCH110 carrying the β-galactosidase gene (Pharmacia) was used. Mouse […], as well as mouse RXRα, β and γ expression vectors were derived from the parental pSG5 vector (Green, S., et al., Nucleic Acids Res. 16:369 (1988)).
COS-1 cells were used for transient transfection assays. Cells were grown in Dulbecco's modified Eagle's medium supplemented with 5% fetal calf serum.
Several hours before transfection, the medium was replaced with fresh medium containing 5% charcoal-treated FCS. […]

[1] = target: T1, RARα(ΔAB)/RXRα(ΔAB) heterodimer (Mus musculus, UniProt P11416;P28700 P11416:88-462,P28700:140-467); assay: competition; competes more efficiently than native RARE D2; details: tags: ΔAB truncations, bacterially expressed, from H. Gronemeyer
T1 sequence 1: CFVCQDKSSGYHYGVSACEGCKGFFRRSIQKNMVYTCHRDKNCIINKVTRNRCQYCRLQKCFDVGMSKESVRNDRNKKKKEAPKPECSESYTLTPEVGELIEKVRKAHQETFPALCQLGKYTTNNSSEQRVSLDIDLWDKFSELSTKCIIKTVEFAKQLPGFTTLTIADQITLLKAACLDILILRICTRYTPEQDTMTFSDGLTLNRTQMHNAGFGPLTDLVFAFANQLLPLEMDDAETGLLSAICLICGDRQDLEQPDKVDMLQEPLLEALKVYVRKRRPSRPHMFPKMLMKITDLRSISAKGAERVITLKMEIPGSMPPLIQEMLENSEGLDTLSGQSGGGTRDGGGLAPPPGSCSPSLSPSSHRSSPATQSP
T1 sequence 2: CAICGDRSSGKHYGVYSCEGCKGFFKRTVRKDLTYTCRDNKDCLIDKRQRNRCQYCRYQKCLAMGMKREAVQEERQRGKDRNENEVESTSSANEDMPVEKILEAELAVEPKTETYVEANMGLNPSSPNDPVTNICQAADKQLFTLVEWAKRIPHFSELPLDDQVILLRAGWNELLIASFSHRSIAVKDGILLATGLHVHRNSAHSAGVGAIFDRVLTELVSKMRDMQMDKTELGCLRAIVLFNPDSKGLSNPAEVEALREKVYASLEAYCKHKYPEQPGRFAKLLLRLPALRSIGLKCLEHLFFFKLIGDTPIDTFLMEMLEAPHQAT
Source text: (§1) DNA binding competition assays. Gel shift analysis using labeled RARE D2 (SEQ ID NO:2) and recombinant RARα and RXRα as indicated. As competitors, RARE D2 (SEQ ID NO:2), RAREβ2 (SEQ ID NO:5) and the mutant […] and […] cold oligonucleotides (SEQ ID NO:3) were used as indicated at 5, 50- and 100-fold molar excess. The black arrowhead indicates the shifted complex.
(§2) To further characterize the D2R RARE element and its binding affinity to retinoid receptors, mutations were introduced into this sequence generating D2 ml (SEQ ID NO:3) and D2 m2 (SEQ ID NO:4) (FIG. 7A). These mutated oligonucleotides were used for competition in gel-shift assays (FIG. 8).
(§3) DNA Binding Assays. A 29-bp synthetic oligonucleotide (SEQ ID NO:2) corresponding to the RARE region in the D2R promoter (SEQ ID NO:1) (from positions −76 to −49), in addition to two mutated oligonucleotides (SEQ ID NOs:3 and 4) (FIG. 7A) were used in gel retardation assays. A synthetic oligonucleotide corresponding to the RARE-β2 (SEQ ID NO:5) (Mader, S., et al., *J. Biol. Chem.* 268:591–600 (1993)) was used as positive control. Bacterially-expressed purified mouse RARα (ΔAB) and RXRα (ΔAB) proteins were kindly provided by H. Gronemeyer.

RARα/RXRγ = target: T2, RARα/RXRγ (Mus musculus, UniProt P11416;P28705 P11416:1-462,P28705:1-463); assay: cell_activity; C3 TK-CAT reporter with one RARE D2 copy, t-RA and 9-cis-RA; details: tags: pSG5 expression vectors, COS-1 cells; label: 32P
T2 sequence 1: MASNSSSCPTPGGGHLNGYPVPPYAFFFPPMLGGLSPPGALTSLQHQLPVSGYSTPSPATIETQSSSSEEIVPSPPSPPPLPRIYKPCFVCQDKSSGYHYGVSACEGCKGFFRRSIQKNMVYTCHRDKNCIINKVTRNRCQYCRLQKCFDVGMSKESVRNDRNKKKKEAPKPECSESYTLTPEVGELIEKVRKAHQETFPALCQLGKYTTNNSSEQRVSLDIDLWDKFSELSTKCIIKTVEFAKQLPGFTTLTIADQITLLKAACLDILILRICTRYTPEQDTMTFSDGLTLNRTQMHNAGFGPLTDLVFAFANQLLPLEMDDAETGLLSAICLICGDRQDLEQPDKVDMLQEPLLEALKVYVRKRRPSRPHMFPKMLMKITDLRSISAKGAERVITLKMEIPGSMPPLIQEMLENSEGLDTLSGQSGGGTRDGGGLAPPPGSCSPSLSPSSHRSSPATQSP
T2 sequence 2: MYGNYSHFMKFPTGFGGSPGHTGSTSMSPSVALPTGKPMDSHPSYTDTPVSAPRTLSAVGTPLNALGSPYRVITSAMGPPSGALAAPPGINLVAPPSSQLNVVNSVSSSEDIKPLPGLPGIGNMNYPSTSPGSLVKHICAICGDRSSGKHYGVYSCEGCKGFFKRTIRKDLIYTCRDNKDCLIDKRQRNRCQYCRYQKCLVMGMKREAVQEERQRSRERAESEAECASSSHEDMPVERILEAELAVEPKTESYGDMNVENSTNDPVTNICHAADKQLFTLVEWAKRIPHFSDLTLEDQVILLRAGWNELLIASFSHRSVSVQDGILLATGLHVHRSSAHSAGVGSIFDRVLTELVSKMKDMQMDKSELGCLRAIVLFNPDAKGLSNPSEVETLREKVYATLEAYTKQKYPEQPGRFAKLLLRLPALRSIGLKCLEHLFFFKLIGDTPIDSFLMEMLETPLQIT
Procedure: Bars represent the mean of several independent experiments and standard deviations are indicated.
Several hours before transfection, the medium was replaced with fresh medium containing 5% charcoal-treated FCS. Cells (10^6 per 10 cm plate) were transfected by the calcium phosphate method using 2 μg of the reporter plasmid, 0.1 μg of retinoid acid receptor expression vectors and 0.5 μg of pCH110. In all transfection assays, the Bluescript (SK^-) plasmid was used as a carrier to reach 20 μg of total transfected DNA per plate.

[2] = target: T1, RARα(ΔAB)/RXRα(ΔAB) heterodimer; assay: competition; drastic decrease of labeled RARE D2 complex at 5-fold excess, complete at 50-fold; stronger than RARE D2; details: tags: ΔAB truncations, bacterially expressed, from H. Gronemeyer
Source text: as §1, §3

[3] = target: T1, RARα(ΔAB)/RXRα(ΔAB) heterodimer; assay: competition; no competition even at 100-fold excess; details: tags: ΔAB truncations, bacterially expressed, from H. Gronemeyer
Source text: as §1, §2, §3

CC1=C(/C=C/C(C)=C\C=C\C(C)=C\C(=O)O)C(C)(C)CCC1 [9-cis-RA, 9-cis RA]
changes in CAT activity (D2R promoter): no significant changes

B1: D2m2 (dsDNA)
DNA 1: AGCTTCCTCGTGACCAGGGTGACCCCGCG
DNA 2: CGCGGGGTCACCCTGGTCACGAGGAAGCT
binding result [1]: binds

B2: RARE D2 (dsDNA)
DNA 1: AGCTTCCTCGTGGCCAGGGTGACCCCGCG
DNA 2: CGCGGGGTCACCCTGGCCACGAGGAAGCT
activity (RARα/RXRγ): 11 fold

B3: RAREβ2 (dsDNA)
DNA 1: GGGTAGGGTTCACCGAAAGTTCACTG
DNA 2: CAGTGAACTTTCGGTGAACCCTACCC
binding result [2]: binds

B4: D2m1 (dsDNA)
DNA 1: AGCTTCCTCGGTGCGAGGGGTACGCCGCG
DNA 2: CGCGGCGTACCCCTCGCACCGAGGAAGCT
binding result [3]: no binding
